What all share (assay): EMSA
Data set [1] relates to ResR/McdR (ResR1-225) (Mycobacterium tuberculosis Erdman).
Data set [2] has as its system ResR/McdR17-225 (Mycobacterium tuberculosis Erdman).
Data set [3] deals with ResR/McdRMS (Mycobacterium smegmatis).

With PrplN_FL, the results for the Kd in data set [1], in data set [2] and in data set [3] were 780 nM, 1170 nM and 1400 nM, respectively.

In data set [1], PwhiB2_FL came in with a Kd of 330 nM.

For orientation: Kd means the constant that tells how readily two partners part at equilibrium.

These data come from paper PMC10336103, “ResR/McdR-regulated protein translation machinery contributes to drug resilience in Mycobacterium tuberculosis” (Communications Biology, 2023).
